Test results from patent US20220144943A1 (INTEGRITY BIOVENTURES, published 2022).
Residue numbers refer to the chain shown, from its start.

B1: HC1 (SEQ ID NO: 123) + LC2 (SEQ ID NO: 127) (antibody, human IgG4 S228P, kappa, V domains shown)
VH: QVQLVQSGAEVKKPGASVKVSCKASGYAFTNYLIEWVRQAPGQGLEWMGVINPGSGATNYNQKFQGRVTMTADKSISTAYMELSRLRSDDTAVYFCARRVYFDYWGQGTLVTVSS
VL: EIVMTQSPATLSLSPGERATLSCRASQSISDYLHWYQQKPGQAPRLLIKYASQSISGIPARFSGSGSGSDFTLTISSLEPEDFAVYYCQNGHSFPLTFGQGTKLEIKR
notes: also called HC1 + LC2
B2: HC2 (SEQ ID NO: 124) + LC2 (SEQ ID NO: 127) (antibody, human IgG4 S228P, kappa, V domains shown)
VH: B1 VH with M48I, M70L
VL: B1 VL
notes: also called HC2 + LC2
B3: HC3 (SEQ ID NO: 125) + LC3 (SEQ ID NO: 128) (antibody, human IgG4 S228P, kappa, V domains shown)
VH: B1 VH with I76T, A79V, R85S, D89E
VL: B1 VL with E1D, S69T, K103R
notes: also called HC3 + LC3
B4: HC3 (SEQ ID NO: 125) + LC2 (SEQ ID NO: 127) (antibody, human IgG4 S228P, kappa, V domains shown)
VH: B1 VH with I76T, A79V, R85S, D89E
VL: B1 VL
notes: also called HC3 + LC2
B5: HC3 (SEQ ID NO: 125) + LC1 (SEQ ID NO: 126) (antibody, human IgG4 S228P, kappa, V domains shown)
VH: B1 VH with I76T, A79V, R85S, D89E
VL: B1 VL with M4L, S56T, S69T
notes: also called HC3 + LC1
B6: HC2 (SEQ ID NO: 124) + LC1 (SEQ ID NO: 126) (antibody, human IgG4 S228P, kappa, V domains shown)
VH: B1 VH with M48I, M70L
VL: B1 VL with M4L, S56T, S69T
notes: also called HC2 + LC1
B7: HC2 (SEQ ID NO: 124) + LC3 (SEQ ID NO: 128) (antibody, human IgG4 S228P, kappa, V domains shown)
VH: B1 VH with M48I, M70L
VL: B1 VL with E1D, S69T, K103R
notes: also called HC2 + LC3
B8: HC1 (SEQ ID NO: 123) + LC1 (SEQ ID NO: 126) (antibody, human IgG4 S228P, kappa, V domains shown)
VH: B1 VH
VL: B1 VL with M4L, S56T, S69T
notes: also called HC1 + LC1
B9: HC1 (SEQ ID NO: 123) + LC3 (SEQ ID NO: 128) (antibody, human IgG4 S228P, kappa, V domains shown)
VH: B1 VH
VL: B1 VL with E1D, S69T, K103R
notes: also called HC1 + LC3

Target: T1, CD47 (UniProt Q08722 19-139, limits assumed)
T1 construct: also called Antigen; Cluster of differentiation 47
Assay: Octet HTX BLI, antibody on anti-human Fc biosensors, antigen in solution, 1:1 fit
Description: The affinity of 9 humanized antibody combinations and the chimeric parental antibody was evaluated by Octet. Multi-concentration kinetic experiments were performed on the Octet HTX system (ForteBio). Anti-human Fc biosensors (ForteBio) were hydrated in sample diluent (0.1% BSA in PBS and 0.02% Tween 20) and preconditioned in pH 1.9 Glycine. Antigen was diluted by a 7 point, 3 fold serial dilution starting at 500 nM with sample diluent. Antibodies were diluted to 2 ug/mL with sample diluent and then immobilized onto anti-human Fc biosensors. After baselines were established for 30 seconds in sample diluent, the biosensors were moved to wells containing serially diluted antigen to measure the association and dissociation. […] The binding affinities were characterized by fitting the kinetic sensorgrams to a monovalent binding model (1:1 binding).

T1 sequence (Q08722 19-139 limits assumed): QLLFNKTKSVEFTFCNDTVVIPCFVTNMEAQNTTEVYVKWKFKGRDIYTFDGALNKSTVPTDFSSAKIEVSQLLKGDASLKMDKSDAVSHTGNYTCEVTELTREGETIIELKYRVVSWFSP

| Binder | Kd [nM] | koff [s⁻¹] | kon [M⁻¹ s⁻¹] |
| --- | --- | --- | --- |
| B1 | 26 | 0.0041 | 160000 |
| B2 | 18 | 0.003 | 170000 |
| B3 | 15 | 0.0025 | 170000 |
| B4 | 29 | 0.0036 | 120000 |
| B5 | 12 | 0.0025 | 220000 |
| B6 | 22 | 0.0035 | 160000 |
| B7 | 23 | 0.0034 | 150000 |
| B8 | 15 | 0.0025 | 160000 |
| B9 | 15 | 0.0027 | 180000 |
